The target of test [1] is T1, human MSLN-FL-his protein (human, UniProt Q13421 296-580).
T1 construct: made in HEK293E cells, purified on nickel column; also called hMSLN-FL-his; human MSLN full-length protein; not shown: His tag
The test is described as follows: competitive ELISA; row Tab142. A general note: In an ELISA, binding on a coated surface is turned into a signal by an enzyme label.
T1 sequence (Q13421 other isoform, or with tags, fused parts or gaps): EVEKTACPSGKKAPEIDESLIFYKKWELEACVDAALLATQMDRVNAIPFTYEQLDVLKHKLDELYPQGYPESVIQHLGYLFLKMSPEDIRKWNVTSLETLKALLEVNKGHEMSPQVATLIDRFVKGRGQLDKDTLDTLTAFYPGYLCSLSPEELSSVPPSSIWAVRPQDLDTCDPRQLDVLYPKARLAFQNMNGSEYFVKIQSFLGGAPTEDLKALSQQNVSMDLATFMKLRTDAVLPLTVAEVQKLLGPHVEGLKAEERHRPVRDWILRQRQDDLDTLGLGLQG

Test [2] addresses T1, human MSLN-FL-his protein. Briefly: competitive ELISA; row F3-63.5.
Description: (§1) In order to identify antigen-binding sites of antibodies, MSLN chimeric antibodies were grouped using competitive ELISA.
(§2) The chimeric antibodies were diluted to 2 μg/mL with PBS and allowed to coat 96-well high-adsorption ELISA plates at 50 μL/well. After the plates were coated at 4° C. overnight, 250 μL of a blocking buffer (PBS containing 2% (w/w) BSA) was added for two hours of blocking at room temperature. 40 μg/mL of the antibodies to be tested were added, and then the human MSLN-FL-His protein with an EC₈₀ concentration corresponding to each of the antibodies to be tested was added for incubation for 2 h. The plates were washed 5 times with PBS, an HRP-labeled anti-His secondary antibody (purchased from Genescript, Cat. No. A00612) was then added for incubation for 1 h, and the plates were washed 5 times again. A TMB substrate was added at 50 μL/well, and after 10 minutes of incubation at room temperature, a stop solution (1.0 M HCl) was added at 50 μL/well. OD₄₅₀ nm values were read using an ELISA plate reader (Insight, purchased from PerkinElmer), and the competition rate between the antibodies was calculated according to the OD₄₅₀ nm values using a formula.
The target of test [3] is T1, human MSLN-FL-his protein. Briefly: competitive ELISA; row Tab106.
Description: as §1, §2
Test [4] addresses T1, human MSLN-FL-his protein. Briefly: competitive ELISA; row F6-62.5.
Description: as §1, §2
Test [5] addresses T1, human MSLN-FL-his protein. Briefly: competitive ELISA; row F6-76.1.
Description: as §1, §2
For test [6], the target named is T1, human MSLN-FL-his protein. Briefly: competitive ELISA; row F2-56.12.
Description: as §1, §2
The target of test [7] is T1, human MSLN-FL-his protein. The test is described as follows: competitive ELISA; row F4-94.15.
Description: as §1, §2
Test [8] has as its target T1, human MSLN-FL-his protein. The test is described as follows: SPR (Biacore), antibody captured on Protein A chip.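 Further: measured at 25 °C, analyte injected 240 s in five twofold dilutions from 200 nM, dissociation up to 600 s, double-referenced, fitted with Langmuir 1:1 model.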 In general terms: Surface plasmon resonance follows binding to a sensor surface in real time, without labels.
Test [9] has as its target T2, human MSLN-R2-his protein (human, UniProt Q13421 391-486).
T2 construct: also called human MSLN-R2 protein; hMSLN-R2-his; not shown: His tag
Briefly: ELISA, coated antigen; antibody 0.01 nM.

Test [10] addresses T2, human MSLN-R2-his protein. Briefly: ELISA, coated antigen; antibody 1 nM.
Description: (§3) The plate was sealed with a plastic film and incubated at 4° C. overnight. The next day, the plate was washed twice with PBST, and a blocking buffer [PBS+2% (w/w) BSA] was added for blocking at room temperature for 2 h. The blocking buffer was discarded, and a chimeric antibody or negative control antibody serially diluted from 100 nM was added at 50 μL/well. After incubation at 37° C. for 2 h, the plate was washed 3 times with PBST. […] After incubation at 37° C. for 2 h, the plate was washed 5 times with PBST. A TMB substrate was added at 50 μL/well for incubation at room temperature for 5-10 min, and then a stop solution (1.0 N HCl) was added at 50 μL/well.
Test [11] concerns the target T2, human MSLN-R2-his protein. The test is described as follows: ELISA, coated antigen; antibody 0.1 nM.
Description: as §3
Test [12] deals with T2, human MSLN-R2-his protein. Briefly: ELISA, coated antigen; antibody 0.0001 nM.
Description: as §3
The target of test [13] is T2, human MSLN-R2-his protein. The test is described as follows: ELISA, coated antigen; antibody 100 nM.
Description: as §3
The target of test [14] is T2, human MSLN-R2-his protein. The test is described as follows: ELISA, coated antigen; no antibody (blank, column 'none').
Description: as §3
Test [15] has as its target T2, human MSLN-R2-his protein. Briefly: ELISA, coated antigen; antibody 10 nM.
Description: as §3
In test [16] the target is T2, human MSLN-R2-his protein. Briefly: ELISA, coated antigen; antibody 0.001 nM.
Description: as §3
Test [17] concerns the target T3, human MSLN-R3-his protein (human, UniProt Q13421 487-598).
T3 construct: Made in HEK293E cells, purified on nickel column; also called hMSLN-R3-his; human MSLN-R3 protein; not shown: His tag
The test is described as follows: ELISA, coated antigen, antibody 0.0001 nM.

Test [18] deals with T3, human MSLN-R3-his protein. The test is described as follows: ELISA, coated antigen, antibody 0.1 nM.
Description: as §3
For test [19], the target named is T3, human MSLN-R3-his protein. The test is described as follows: ELISA, coated antigen, antibody 1 nM.
Description: as §3
For test [20], the target named is T3, human MSLN-R3-his protein. The test is described as follows: ELISA, coated antigen, antibody 0.01 nM.
Description: as §3
The target of test [21] is T3, human MSLN-R3-his protein. The test is described as follows: ELISA, coated antigen, antibody 0.001 nM.
Description: as §3
Test [22] deals with T3, human MSLN-R3-his protein. Briefly: ELISA, coated antigen, antibody 10 nM.
Description: as §3
Test [23] deals with T3, human MSLN-R3-his protein. The test is described as follows: ELISA, coated antigen, no antibody (blank).
Description: as §3
Test [24] deals with T3, human MSLN-R3-his protein. The test is described as follows: ELISA, coated antigen, antibody 100 nM.
Description: as §3
Test [25] deals with T4, human MSLN-FL-his protein (human, UniProt Q13421 296-580).
T4 construct: also called human MSLN full-length protein; hMSLN-FL-his; not shown: His tag
The test is described as follows: ELISA, coated antigen; antibody 0.001 nM.

For test [26], the target named is T4, human MSLN-FL-his protein. Briefly: ELISA, coated antigen; antibody 0.0001 nM.
Description: as §3
Test [27] addresses T4, human MSLN-FL-his protein. Briefly: ELISA, coated antigen; no antibody (blank, column 'none').
Description: as §3
The target of test [28] is T4, human MSLN-FL-his protein. The test is described as follows: ELISA, coated antigen; antibody 0.1 nM.
Description: as §3
Test [29] addresses T4, human MSLN-FL-his protein. Briefly: ELISA, coated antigen; antibody 1 nM.
Description: as §3
For test [30], the target named is T4, human MSLN-FL-his protein. Briefly: ELISA, coated antigen; antibody 100 nM.
Description: as §3
Test [31] addresses T4, human MSLN-FL-his protein. Briefly: ELISA, coated antigen; antibody 10 nM.
Description: as §3
Test [32] concerns the target T4, human MSLN-FL-his protein. The test is described as follows: ELISA, coated antigen; antibody 0.01 nM.
Description: as §3

T2 sequence (Q13421 other isoform, or with tags, fused parts or gaps): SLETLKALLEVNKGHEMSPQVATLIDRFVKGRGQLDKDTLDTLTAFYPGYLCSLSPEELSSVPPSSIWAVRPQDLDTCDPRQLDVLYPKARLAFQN
T3 sequence (Q13421 495-606): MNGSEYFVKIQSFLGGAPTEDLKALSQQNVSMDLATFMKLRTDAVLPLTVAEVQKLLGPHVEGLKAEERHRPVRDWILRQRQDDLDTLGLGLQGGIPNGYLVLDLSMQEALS

B1: S009-F2-56.12 (antibody, human IgG1, kappa, V domains shown)
VH: DVQLQESGPGMVKPSQSLSLTCTVTGYSITSGYDWHWIRHFPGNKLEWMGYISYSGSTNYNPSLKSRISITHDTSKNHFFLKLKSVTTEDTATYYCARGTGPDYWGQGTTLTVSS
VL: DIVMTQSQKFMSTSVGDRVSITCKASQNVRTAVAWYQQKPGQSPKALIHLPSNRHTGVPDRFTGSGSGTDFTLTISNVQSEDLADYFCLQHWNYPLTFGGGTKLEIKR
notes: human-murine chimeric antibody, human IgG1/kappa constant regions
Consider B1, for which the competition rate was 3% in test [1]; -24% in [2]; 1% in test [3]; -233% in [4]; 93% in test [5]; 97% in [6]. Moreover, the competition rate in test [7] is 87%. Further, binding in [8] was put at a Kd of 43.1 nM. Further, the koff in [8] worked out at 0.00312 s⁻¹. Besides, the kon in [8] turned out to be 72400 M⁻¹ s⁻¹.

B2: S009-F4-94.15 (antibody, human IgG1, kappa, V domains shown)
VH: QVQLHQPGAELVRPGSSVKLSCKASGYTFTSYWVHWVQQRPRQGLEWIGNIDPSDSEIHYNQKFKDKATLTVDKSSSTAYIHLSRLTSEDSAIYYCVRGGVPWFAYWGQGTLVTVSA
VL: QIVLTQSPAIMSASPGEKVTLTCSASSSVSSTYLYWFQQKPGSSPKVWIYSTSNLASGVPARFSGSGSGTSYSLTISSMEAEDAASYFCHQWISYPYTFGGGTKLEIKR
notes: as for B1
B2: the competition rate in test [1] was 26%; in test [2], -10%; in [3] it was 19%; in [4], -262%; in [5], 99%; in [6] it was 101%. In addition, the competition rate in test [7] is 100%. Besides, in test [8], the Kd came out at 1.2 nM. This molecule showed a koff in [8] of 0.000185 s⁻¹. This molecule returned a kon in test [8] of 154000 M⁻¹ s⁻¹.

B3: Tab106 (YP218, hIgG1) (antibody, V domains shown)
VH: QQQLEESGGGLVKPEGSLTLTCKASGFDLGFYFYACWVRQAPGKGLEWIACIYTAGSGSTYYASWAKGRFTISKASSTTVTLQMTSLAAADTATYFCARSTANTRSTYYLNLWGPGTLVTVSS
VL: DVVMTQTPASVSEPVGGTVTIKCQASQRISSYLSWYQQKPGQRPKLLIFGASTLASGVPSRFKGSGSGTEYTLTISDLECADAATYYCQSYAYFDSNNWHAFGGGTEVVVRT
notes: Control antibody: YP218 VH and VL recombined into human IgG1 CH and CL expression vectors; also called YP218 human IgG1 antibody
Take B3: the OD450 in test [9] is 0.06 OD450; in test [10] it was 0.3 OD450; in [11] it was 0.08 OD450; in test [12] it was 0.06 OD450; in test [13], 2.07 OD450; in test [14], 0.07 OD450. Also, the OD450 was 1.39 OD450 in [15] and 0.06 OD450 in test [16].

B4: Tab106 (YP218, hIgG1) (antibody, V domains shown)
VH: B3 VH
VL: B3 VL
notes: Control: YP218 VH and VL recombined into human IgG1 CH and CL expression vectors; also called YP218 human IgG1 antibody
For B4, the OD450 in test [17] amounted to 0.05; in test [18], 0.88; in test [19] it was 1.57; in test [20], 0.18; in test [21], 0.06; in [22], 1.69. Besides, the values for the OD450 in [23] and in test [24] were 0.07 and 1.79, respectively.

B5: S009-F6-62.5 (antibody, human IgG1, kappa, V domains shown)
VH: QVQLQQPGTELVKPGASVKLSCRASGYTFTAYWMHWVKQRPGQGLEWIGNINPSNGGTDFNEKFKSKATLTVDKSSSTAYMQLSSLTSEDSAVYYCARGRGYFDVWGTGTTVTVSS
VL: DILLTQSPAILSVSPGERVSFSCRASKNIGTSIHWYQQRTNGSPRLLIKYASESISGIPSRFSGSGSGTDFTLNINSVESEDIADYYCQQSNSWPTLTFGAGTKLELKR
notes: as for B1
Turning to B5, the competition rate is 28% in test [1]; -17% in [2]; 30% in [3]; -76% in test [4]; 57% in test [5]; -143% in test [6]. Besides, the competition rate in [7] turned out to be 25%. In test [8], the Kd was 120 nM. Further, the koff in test [8] stood at 0.0173 s⁻¹. In test [8], this molecule returned a kon of 144000 M⁻¹ s⁻¹.

B6: S009-F6-62.5 (antibody, human IgG1, kappa, V domains shown)
VH: B5 VH
VL: B5 VL
notes: Human-murine chimeric antibody, human IgG1/kappa constant regions
As for B6, the OD450 in test [25] came out at 0.27 OD450; in [26] it was 0.05 OD450; in test [27] it was 0.05 OD450; in test [28] it was 2.45 OD450; in [29], 3.13 OD450; in test [30] it was 3.22 OD450. For the same molecule, the OD450 is 3.11 OD450 in [31] and 0.94 OD450 in test [32].

B7: S009-F6-76.1 (antibody, human IgG1, kappa, V domains shown)
VH: QVQLQQSGPELVKPGASVKISCKASGYTFTDYYINWVKQRPGQGLEWIGWIFPGRGSTFYYEKFKGKATLTVDKSSSTAYMLLSSLTSEDSAVYFCARRGDSAGYEDLDYWGQGTSVTVSS
VL: NIVMTQSPKFMSMSVGERVTLSCKASENVVTYVSWYQQKPKQSPKLLIYGASKRYTGVPDRFTGSGSATDFTLTISSVQAEDLGDYHCGQSYSYPYTFGGGTKLEIKR
notes: as for B1
On to B7, for which the competition rate was 39% in [1]; 2% in [2]; 27% in [3]; 60% in test [4]; 98% in test [5]; 99% in test [6]. In addition, the competition rate in test [7] was 94%. Binding in [8] was put at a Kd of 10.1 nM. In [8], the koff was determined as 0.000369 s⁻¹. Moreover, in test [8], the kon came to 36700 M⁻¹ s⁻¹.

B8: S009-F3-63.5 (antibody, human IgG1, kappa, V domains shown)
VH: QVQLQQSGAELVRPGASVTLSCKASGYTFTDYEMHWVKQTPVHGLEWIGGIDPETGDTAYNQQFKGKAILTADRSSSTAYMELRSLTSEDSAVYYCTNYASSREDYWGQGTTLTVSS
VL: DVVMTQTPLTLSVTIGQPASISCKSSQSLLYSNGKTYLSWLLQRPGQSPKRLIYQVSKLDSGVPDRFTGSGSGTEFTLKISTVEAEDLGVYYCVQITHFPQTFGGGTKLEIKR
notes: as for B1
Regarding B8, the competition rate was 2% in test [1]; 58% in [2]; 15% in [3]; -366% in [4]; -3% in test [5]; -77% in test [6]. Also, the competition rate in test [7] is 11%. In test [8], this molecule displayed a Kd of 105 nM. In addition, the koff in test [8] amounted to 0.000478 s⁻¹. The molecule also had a kon in [8] of 4560 M⁻¹ s⁻¹.

Broadly, the Kd is a measure of binding affinity in units of concentration. A lower Kd goes with a tighter complex. Usually koff stands for the first-order rate constant of dissociation. A low value points to a long-lived complex. In general, kon refers to the second-order rate constant of association.

These data come from patent publication US20250250357A1 (NANJING ZAIMING PHARMACEUTICAL, published 2025).
